According to patent US12679878B2, “CRF2 receptor agonists and their use in therapy” (SANOFI, priority 2020, dated 2026):
Starred links: 1 amine or outer side, 2 acyl side, 3 side chain; linkers in the order of their positions; H or OH if unused. Non-standard residues stand in square brackets, D forms with d. Groups on a side chain read outwards from the residue. No end group written: not given here. *: point of attachment. C18 diacid = O=C(O)CCCCCCCCCCCCCCCCC(=O)*; γGlu = O=C(O)[C@H](CCC(=O)[*:2])N[*:1]; Palmitoyl = CCCCCCCCCCCCCCCC(=O)*; AEEA = NCCOCCOCC(=O)O

Target: human corticotropin-releasing factor 2α (CRF2 α receptor) (human), Q13324
Test: cell-based or functional assay

Sequence of human corticotropin-releasing factor 2α (CRF2 α receptor) (human), Q13324 (Q13324 20-411): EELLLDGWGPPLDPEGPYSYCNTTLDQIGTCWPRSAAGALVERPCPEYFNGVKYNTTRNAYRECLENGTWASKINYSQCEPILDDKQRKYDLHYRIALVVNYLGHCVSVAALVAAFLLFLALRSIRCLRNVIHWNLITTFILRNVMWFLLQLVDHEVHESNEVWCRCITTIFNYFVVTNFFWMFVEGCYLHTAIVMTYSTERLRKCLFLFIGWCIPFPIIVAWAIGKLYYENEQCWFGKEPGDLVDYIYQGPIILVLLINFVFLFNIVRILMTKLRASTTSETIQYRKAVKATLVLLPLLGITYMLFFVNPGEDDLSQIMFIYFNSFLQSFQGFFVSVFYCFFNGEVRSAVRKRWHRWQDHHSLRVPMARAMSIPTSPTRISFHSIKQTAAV

B1: SEQ ID NO: 34 (peptide)
peptide: FTLSLDVPTKIK([AEEA-AEEA-γGlu-C18 diacid])QKLLKQEKQKKQRQKAKTNKQILEQV-NH2
modifications: N-terminus assumed
SMILES: CC[C@H](C)[C@H](NC(=O)[C@H](CCC(N)=O)NC(=O)[C@H](CCCCN)NC(=O)[C@H](CC(N)=O)NC(=O)[C@@H](NC(=O)[C@H](CCCCN)NC(=O)[C@H](C)NC(=O)[C@H](CCCCN)NC(=O)[C@H](CCC(N)=O)NC(=O)[C@H](CCCNC(=N)N)NC(=O)[C@H](CCC(N)=O)NC(=O)[C@H](CCCCN)NC(=O)[C@H](CCCCN)NC(=O)[C@H](CCC(N)=O)NC(=O)[C@H](CCCCN)NC(=O)[C@H](CCC(=O)O)NC(=O)[C@H](CCC(N)=O)NC(=O)[C@H](CCCCN)NC(=O)[C@H](CC(C)C)NC(=O)[C@H](CC(C)C)NC(=O)[C@H](CCCCN)NC(=O)[C@H](CCC(N)=O)NC(=O)[C@H](CCCCNC(=O)COCCOCCNC(=O)COCCOCCNC(=O)CC[C@H](NC(=O)CCCCCCCCCCCCCCCCC(=O)O)C(=O)O)NC(=O)[C@@H](NC(=O)[C@H](CCCCN)NC(=O)[C@@H](NC(=O)[C@@H]1CCCN1C(=O)[C@@H](NC(=O)[C@H](CC(=O)O)NC(=O)[C@H](CC(C)C)NC(=O)[C@H](CO)NC(=O)[C@H](CC(C)C)NC(=O)[C@@H](NC(=O)[C@@H](N)Cc1ccccc1)[C@@H](C)O)C(C)C)[C@@H](C)O)[C@@H](C)CC)[C@@H](C)O)C(=O)N[C@@H](CC(C)C)C(=O)N[C@@H](CCC(=O)O)C(=O)N[C@@H](CCC(N)=O)C(=O)N[C@H](C(N)=O)C(C)C
EC50 [nM], 0% HSA: 6.88 nM

B2: SEQ ID NO: 33 (peptide)
peptide: IVLSLD[dV]PTKLK([γGlu-Palmitoyl])QKLLKQERQRKEREQAEKNTRILERV-NH2
modifications: N-terminus assumed
SMILES: CCCCCCCCCCCCCCCC(=O)N[C@@H](CCC(=O)NCCCC[C@H](NC(=O)[C@H](CC(C)C)NC(=O)[C@H](CCCCN)NC(=O)[C@@H](NC(=O)[C@@H]1CCCN1C(=O)[C@H](NC(=O)[C@H](CC(=O)O)NC(=O)[C@H](CC(C)C)NC(=O)[C@H](CO)NC(=O)[C@H](CC(C)C)NC(=O)[C@@H](NC(=O)[C@@H](N)[C@@H](C)CC)C(C)C)C(C)C)[C@@H](C)O)C(=O)N[C@@H](CCC(N)=O)C(=O)N[C@@H](CCCCN)C(=O)N[C@@H](CC(C)C)C(=O)N[C@@H](CC(C)C)C(=O)N[C@@H](CCCCN)C(=O)N[C@@H](CCC(N)=O)C(=O)N[C@@H](CCC(=O)O)C(=O)N[C@@H](CCCNC(=N)N)C(=O)N[C@@H](CCC(N)=O)C(=O)N[C@@H](CCCNC(=N)N)C(=O)N[C@@H](CCCCN)C(=O)N[C@@H](CCC(=O)O)C(=O)N[C@@H](CCCNC(=N)N)C(=O)N[C@@H](CCC(=O)O)C(=O)N[C@@H](CCC(N)=O)C(=O)N[C@@H](C)C(=O)N[C@@H](CCC(=O)O)C(=O)N[C@@H](CCCCN)C(=O)N[C@@H](CC(N)=O)C(=O)N[C@H](C(=O)N[C@@H](CCCNC(=N)N)C(=O)N[C@H](C(=O)N[C@@H](CC(C)C)C(=O)N[C@@H](CCC(=O)O)C(=O)N[C@@H](CCCNC(=N)N)C(=O)N[C@H](C(N)=O)C(C)C)[C@@H](C)CC)[C@@H](C)O)C(=O)O
EC50 [nM], 0% HSA: 0.2 nM
